The supplement of paper PMC10567573

B1: C10orf62 (parent)
chain: GHSHHSHHGHPSHQSHSLPNRRH

Variants of: B1
Test: protein stability index of a GFP-peptide fusion (GPS, HEK-293T) (PSI 1-6); higher = more stable
Details: c terminus: native
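Note: lentivirally expressed fusions sorted by FACS into six bins by GFP to DsRed ratio, PSI derived from sequencing read proportions per bin multiplied by bin number.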

First: GNSHHSHHGHPSHQSHSLPNRRH [H2N]
Second: GWSHHSHHGHPSHQSHSLPNRRH [H2W]
The protein stability index of the first is higher: 3.26 for the first, 3 for the second.

First: GYSHHSHHGHPSHQSHSLPNRRH [H2Y]
Second: GPSHHSHHGHPSHQSHSLPNRRH [H2P]
The protein stability index of the first is higher: 2.31 for the first, 1.89 for the second.

Going from GHSHHSHIGHPSHQSHSLPNRRH [H8I] to GHSHHSHFGHPSHQSHSLPNRRH [H8F], the protein stability index rises from 3.3 to 3.5.

First: GHSHHSHAGHPSHQSHSLPNRRH [H8A]
Second: GHSHHSHQGHPSHQSHSLPNRRH [H8Q]
The protein stability index of the first is higher: 5.15 for the first, 2.84 for the second.

Going from GHSHHSHYGHPSHQSHSLPNRRH [H8Y] to GHSHHSHDGHPSHQSHSLPNRRH [H8D], the protein stability index falls from 3.29 to 1.96.

Compared with GHSHHSHPGHPSHQSHSLPNRRH [H8P], GHSHHSHCGHPSHQSHSLPNRRH [H8C] is higher in protein stability index: 1.38 for the first, 4 for the second.

Compared with GHSHHSHSGHPSHQSHSLPNRRH [H8S], GHSHHSHKGHPSHQSHSLPNRRH [H8K] is higher in protein stability index: 2.96 for the first, 3.13 for the second.

Compared with GHSHHSHMGHPSHQSHSLPNRRH [H8M], GHSHHSHNGHPSHQSHSLPNRRH [H8N] is higher in protein stability index: 2.06 for the first, 4.02 for the second.

Going from GHSHHSHTGHPSHQSHSLPNRRH [H8T] to GHSHHSHRGHPSHQSHSLPNRRH [H8R], the protein stability index falls from 3.37 to 2.72.

Going from GHSHHSHEGHPSHQSHSLPNRRH [H8E] to GHSHHSHGGHPSHQSHSLPNRRH [H8G], the protein stability index rises from 2.42 to 2.46.

Compared with GHSPHSHHGHPSHQSHSLPNRRH [H4P], GHSFHSHHGHPSHQSHSLPNRRH [H4F] is higher in protein stability index: 3.51 for the first, 3.61 for the second.

Compared with GHSYHSHHGHPSHQSHSLPNRRH [H4Y], GHSEHSHHGHPSHQSHSLPNRRH [H4E] is lower in protein stability index: 2.93 for the first, 2.76 for the second.

First: GHSIHSHHGHPSHQSHSLPNRRH [H4I]
Second: GHSKHSHHGHPSHQSHSLPNRRH [H4K]
The protein stability index of the first is higher: 2.58 for the first, 2.15 for the second.

Compared with GHSNHSHHGHPSHQSHSLPNRRH [H4N], GHSAHSHHGHPSHQSHSLPNRRH [H4A] is lower in protein stability index: 4.06 for the first, 2.45 for the second.

Compared with GHSGHSHHGHPSHQSHSLPNRRH [H4G], GHSVHSHHGHPSHQSHSLPNRRH [H4V] is lower in protein stability index: 3.39 for the first, 2.93 for the second.

Compared with GHSCHSHHGHPSHQSHSLPNRRH [H4C], GHSQHSHHGHPSHQSHSLPNRRH [H4Q] is lower in protein stability index: 2.69 for the first, 2.37 for the second.

Going from GHSDHSHHGHPSHQSHSLPNRRH [H4D] to SHSHHSHHGHPSHQSHSLPNRRH [G1S], the protein stability index rises from 2.31 to 2.81.

First: YHSHHSHHGHPSHQSHSLPNRRH [G1Y]
Second: DHSHHSHHGHPSHQSHSLPNRRH [G1D]
The protein stability index of the first is lower: 2.42 for the first, 2.81 for the second.

First: PHSHHSHHGHPSHQSHSLPNRRH [G1P]
Second: QHSHHSHHGHPSHQSHSLPNRRH [G1Q]
The protein stability index of the first is lower: 3.63 for the first, 4.66 for the second.

First: NHSHHSHHGHPSHQSHSLPNRRH [G1N]
Second: RHSHHSHHGHPSHQSHSLPNRRH [G1R]
The protein stability index of the first is lower: 2.38 for the first, 3.44 for the second.

First: WHSHHSHHGHPSHQSHSLPNRRH [G1W]
Second: AHSHHSHHGHPSHQSHSLPNRRH [G1A]
The protein stability index of the first is lower: 3.55 for the first, 4.7 for the second.

First: EHSHHSHHGHPSHQSHSLPNRRH [G1E]
Second: IHSHHSHHGHPSHQSHSLPNRRH [G1I]
The protein stability index of the first is lower: 2.45 for the first, 3.33 for the second.

Going from KHSHHSHHGHPSHQSHSLPNRRH [G1K] to THSHHSHHGHPSHQSHSLPNRRH [G1T], the protein stability index falls from 2.79 to 2.66.

First: MHSHHSHHGHPSHQSHSLPNRRH [G1M]
Second: LHSHHSHHGHPSHQSHSLPNRRH [G1L]
The protein stability index of the first is lower: 2.19 for the first, 3.98 for the second.

Going from FHSHHSHHGHPSHQSHSLPNRRH [G1F] to HHSHHSHHGHPSHQSHSLPNRRH [G1H], the protein stability index falls from 3.19 to 2.43.

First: GHVHHSHHGHPSHQSHSLPNRRH [S3V]
Second: GHDHHSHHGHPSHQSHSLPNRRH [S3D]
The protein stability index of the first is higher: 3.19 for the first, 2.29 for the second.

First: GHYHHSHHGHPSHQSHSLPNRRH [S3Y]
Second: GHWHHSHHGHPSHQSHSLPNRRH [S3W]
The protein stability index of the first is higher: 3.14 for the first, 2.33 for the second.

Compared with GHCHHSHHGHPSHQSHSLPNRRH [S3C], GHIHHSHHGHPSHQSHSLPNRRH [S3I] is lower in protein stability index: 3.13 for the first, 2.2 for the second.

Compared with GHKHHSHHGHPSHQSHSLPNRRH [S3K], GHFHHSHHGHPSHQSHSLPNRRH [S3F] is lower in protein stability index: 2.75 for the first, 2.38 for the second.

First: GHHHHSHHGHPSHQSHSLPNRRH [S3H]
Second: GHQHHSHHGHPSHQSHSLPNRRH [S3Q]
The protein stability index of the first is lower: 2.27 for the first, 2.63 for the second.

First: GHNHHSHHGHPSHQSHSLPNRRH [S3N]
Second: GHRHHSHHGHPSHQSHSLPNRRH [S3R]
The protein stability index of the first is lower: 2.89 for the first, 3.09 for the second.

First: GHLHHSHHGHPSHQSHSLPNRRH [S3L]
Second: GHAHHSHHGHPSHQSHSLPNRRH [S3A]
The protein stability index of the first is lower: 1.31 for the first, 3.05 for the second.

Going from GHSHHSHHEHPSHQSHSLPNRRH [G9E] to GHSHHSHHNHPSHQSHSLPNRRH [G9N], the protein stability index falls from 3.5 to 2.82.

Compared with GHSHHSHHQHPSHQSHSLPNRRH [G9Q], GHSHHSHHTHPSHQSHSLPNRRH [G9T] is lower in protein stability index: 2.3 for the first, 1.87 for the second.

First: GHSHHSHHFHPSHQSHSLPNRRH [G9F]
Second: GHSHHSHHHHPSHQSHSLPNRRH [G9H]
The protein stability index of the first is lower: 3.35 for the first, 3.58 for the second.

First: GHSHHSHHAHPSHQSHSLPNRRH [G9A]
Second: GHSHHSHHPHPSHQSHSLPNRRH [G9P]
The protein stability index of the first is higher: 2.81 for the first, 1.91 for the second.

Going from GHSHHSHHKHPSHQSHSLPNRRH [G9K] to GHSHHSHHLHPSHQSHSLPNRRH [G9L], the protein stability index falls from 3.76 to 2.26.

Going from GHSHHSHHCHPSHQSHSLPNRRH [G9C] to GHSHHSHHWHPSHQSHSLPNRRH [G9W], the protein stability index falls from 4.56 to 3.1.

First: GHSHHSHHIHPSHQSHSLPNRRH [G9I]
Second: GHSHHSHHDHPSHQSHSLPNRRH [G9D]
The protein stability index of the first is higher: 4.14 for the first, 2.41 for the second.

First: GHSHHSHHVHPSHQSHSLPNRRH [G9V]
Second: GHSHHSHHMHPSHQSHSLPNRRH [G9M]
The protein stability index of the first is lower: 3.15 for the first, 3.76 for the second.

Compared with GHSHHSHHSHPSHQSHSLPNRRH [G9S], GHSHASHHGHPSHQSHSLPNRRH [H5A] is higher in protein stability index: 2.37 for the first, 2.92 for the second.

First: GHSHPSHHGHPSHQSHSLPNRRH [H5P]
Second: GHSHGSHHGHPSHQSHSLPNRRH [H5G]
The protein stability index of the first is higher: 4.04 for the first, 2.33 for the second.

Compared with GHSHFSHHGHPSHQSHSLPNRRH [H5F], GHSHCSHHGHPSHQSHSLPNRRH [H5C] is lower in protein stability index: 3.95 for the first, 3.11 for the second.

Compared with GHSHMSHHGHPSHQSHSLPNRRH [H5M], GHSHESHHGHPSHQSHSLPNRRH [H5E] is higher in protein stability index: 2.23 for the first, 2.3 for the second.

Compared with GHSHTSHHGHPSHQSHSLPNRRH [H5T], GHSHLSHHGHPSHQSHSLPNRRH [H5L] is lower in protein stability index: 3.1 for the first, 2.65 for the second.

Going from GHSHNSHHGHPSHQSHSLPNRRH [H5N] to GHSHDSHHGHPSHQSHSLPNRRH [H5D], the protein stability index rises from 2.35 to 3.54.

Compared with GHSHISHHGHPSHQSHSLPNRRH [H5I], GHSHWSHHGHPSHQSHSLPNRRH [H5W] is lower in protein stability index: 2.64 for the first, 2.3 for the second.

Compared with GHSHYSHHGHPSHQSHSLPNRRH [H5Y], GHSHKSHHGHPSHQSHSLPNRRH [H5K] is lower in protein stability index: 3.13 for the first, 1.69 for the second.

GHSHSSHHGHPSHQSHSLPNRRH [H5S] showed a protein stability index of 2.38.
